Test: Thermal stability (Tm) by Differential Scanning Fluorimetry (NanoDSF)
Format: physicochemical
Conditions: 0.5 mg/mL in Phosphate Buffered Saline, pH 7.4
Method: Thermal stability was determined by Differential Scanning Fluorimetry (NanoDSF) using an automated Prometheus instrument. NanoDSF was used to measure Tm of molecules at a concentration of 0.5 mg/mL in Phosphate Buffered Saline, pH 7.4. Measurements were made by loading samples into 24 well capillary from a 384 well sample plate. Duplicate runs were performed for each sample. The thermal scans span from 20° C. to 95° C. at a rate of 1.0° C./minute. Intrinsic tryptophan and tyrosine fluorescence were monitored at the emission wavelengths of 330 nm and 350 nm, and the F350/F330 nm ratio were plotted against temperature to generate unfolding curves.

B1: KL2B467 (Fab) (antibody, V domains shown)
VH: QVQLVESGGGVVQPGRSLRLSCAASGFTFSYYGMHWVRQAPGKGLEWVAFISYDGSNKYYADSVKGRFTISRDNSKNTLYLQMNSLRAEDTAVYYCAHLPYSGSYWAFDYWGQGTQVTVSS
VL: QSVLTQPPSVSVAPGQTASITCGGDNIGSKSVHWYQQKPGQAPVLVVYDNSDRPSGIPERFSGSNSGTTATLTISRVEAGDEADYYCQVWDSSSDHPVVFGGGTKVTV
- Tm (° C.): >70 °C

B2: KL2B242 (Fab) (antibody, V domains shown)
VH: QVQLQESGPGLVKPSETLSLTCTVSGGSISSYYWSWLRQPAGSGLEWIGRLYVSGFTNYNPSLKSRVTLSLDPSRNQLSLKLSSVTAADTAVYYCAGDSGNYWGWFDPWGQGTLVTVSS
VL: SYELTQPPSVSVSPGETASITCSGDQLGENYACWYQQKPGQSPVLVIYQDSKRPSGIPERFSGSNSGNTATLTISGTQALDEADYYCQAWDNSIVVFGGGTKLTVL
- Tm (° C.): >70 °C

B3: KL2B53 (Fab) (antibody, V domains shown)
VH: EVQLVESGGGVVQPGRSLRLSCVASGFTFSSYDIHWVRQAPGKGLEWVAIISYDGSKKDYTDSVKGRFTISRDNSKNTLYLQMDSLRVEDSAVYSCARESGWSHYYYYGMDVWGQGTMVTVSS
VL: DIVMTQSPSSLSASVGDRVTITCRASQDISNYLAWYQQKPGKVPKFLIYAASTLHSGVPSRFSGSGSGTDFTLTISSLQPEDVATYYCQKYNSAPYTFGQGTRLEIK
- Tm (° C.): >70 °C

Source: patent US20250099635A1, “IIMMUNOCONJUGATES COMPRISING KALLIKREIN RELATED PEPTIDASE 2 ANTIGEN BINDING DOMAINS AND THEIR USES” (Janssen Biotech, Inc., priority 2022, published 2025)
